The data set has as its system T1, Nc1ncnc2c1ncn2[C@@H]1O[C@H](COP(=O)(O)OP(=O)(O)OP(=O)(O)O)[C@@H](O)[C@H]1O.
T1 construct: RdRp domain residues 275-903 of NS5, cut from the genome polyprotein; E. coli BL21(DE3)-pRIL; 75 kDa
Briefly: purified protein. It is filed as biochemical, Zika virus. Conditions: poly-U 3 μg/mL, ATP 200–2250 μM, 2.5 mM MnCl2, pH 7.5, 30 °C.

For “ZIKV RdRp (ZIKV NS5 RdRp domain) (Zika virus)”, the Km (usually the substrate concentration at which the rate is half of its maximum) was 561 ± 38 µM.

These data come from PMC6444013, “Development of a fluorescence-based method for the rapid determination of Zika virus polymerase activity and the screening of antiviral drugs” (Scientific Reports, 2019).
